{"source": "the nanobody polyreactivity screen of Harvey et al. (2022)"}
{"experiment": "yeast display, Sf9 membrane polyspecificity reagent, FACS + sequencing; frameworks hold sequencing errors", "outline": "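In a synthetic yeast display library (Saccharomyces cerevisiae BJ5465), nanobody expression was induced with galactose for 36–48 hours. FACS gates were set low and high (top ~1%) using anti-HA fluorescence for expression and streptavidin fluorescence for binding of the Sf9 membrane reagent. Each polyreactivity label is drawn from the gate of origin.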"}
{"sequence": "QVQLEESGGGLVQAGGSLRLSCAASGSMFTRYAKGWYRQAPWKERELVAAISTSGGSTYYADSVKGRFTISRDNAKNTVYLQMTSLKPEDTAVYYCAADDQRRSGYYSWGQGTQVTVSS", "polyreactivity (PSR sort gate)": "high polyreactivity"}
{"sequence": "QVQLEESGGGLVQAGGSLRLSCAASGSNAMGWYRQAPGKERELVAVITSRGGSTYYADSVKGRFTISRDNAKNTVYLQMNSLKPEDTAVYYCAKAWYVRGTWSVHVRYGYWGQGTQVTVSS", "polyreactivity (PSR sort gate)": "high polyreactivity"}
{"sequence": "QVQLEESGGGLVQAGGSLRLSCAASGSTFESYAMGWYRQAPGKERELVATITRRSTRTYYADSVKGRFTISRDNAKNTVYLQMNSLKPEDTAVYYCAARVYTVRAIGMGYWGQGTQVTVSS", "polyreactivity (PSR sort gate)": "high polyreactivity"}
{"sequence": "QVQLEESGGGLVQAGGSLRLSCAASGSTFLLNAMGWYRQAPGKERELVAAITSSGGTNYADSVKGRFTISRDNAKNTVYLQMNSLKPEDTAVYNCYTRYSPGYQGTEVDYWGQGTQVTVSS", "polyreactivity (PSR sort gate)": "low polyreactivity"}
{"sequence": "QVQLEESGGGLVQAGGSLRLSCAASGSTFNYYAMGWYRTATGKERELVAAITGSGTSTYYADSVKGRFTISRDNAKNTVYLQMNSLKPEDTAVYYCNARYRPRQRPEGGYWGQGTQVTVSS", "polyreactivity (PSR sort gate)": "high polyreactivity"}
{"sequence": "QVQLEESGGGLVQAGGSLRLSCAASGSTFQRYAIGWYRQAPGKERELVAAISYRAGRRYYADSVKGRFTISRDNAKNTVYLQMNSLKPEDTAVYYCAAKNQGYQYDYWGQGTQVTVSS", "polyreactivity (PSR sort gate)": "high polyreactivity"}
{"sequence": "QVQLEESGGGLVQAGGSLRLSCAASGSTFSDNAMGWYRQAPGKERELVAAISTGTSTYADSVKGRFTISRDNAKNTVYLQMNSLKPEDTAVYYCAADVGIRPLNYHPYNYWGQGTQVTVSS", "polyreactivity (PSR sort gate)": "low polyreactivity"}
{"sequence": "QVQLEESGGGLVQAGGSLRLSCAASGSTFSGYAMGWYRQATGKDRELVAAITSSGGRTYYADSVKGRFTISRDKAKNTVYLQMNSLKPEDTAVYYCAALYYHEYDYWGQGTQVTVSS", "polyreactivity (PSR sort gate)": "low polyreactivity"}
{"sequence": "QVQLEESGGGLVQAGGSLRLSCAASGSTFTPYAMGWYRQAPGKERELVAAISWSGGSTYYADSVKGRFTISRDNAKNTVYLQMNSLKPEDTAVYYCAATYSYRTRAWGWGNYDYWGQGTQVTVSS", "polyreactivity (PSR sort gate)": "high polyreactivity"}
{"sequence": "QVQLEESGGGLVQAGGSLRLSCAASGSTLNYYAMGWYRQAPGKERELVAAITWSGGSTSYADSVKGRFTISRDKAKNTVYLQMNSLKQEDTAVYYCATDFPTVQLYDTDWLSSDMGYWGQGTQVTVSS", "polyreactivity (PSR sort gate)": "low polyreactivity"}
{"sequence": "QVQLEESGGGLVQAGGSLRLSCAASGSTSLKNAMGWYRQAPGKERELVAAISSGGSTYYADSVKGRFTISRDNAKNTVYLQINSLKPEDTAVYYCAAKYLRGLGYWGQGTQVTVSS", "polyreactivity (PSR sort gate)": "high polyreactivity"}
{"sequence": "QVQLEESGGGLVQAGGSLRLSCAASVSTFRLYVMGGYRQAPGKERQLVAAIDWSGGSTYYADSVKGRFTISRDNAKNTVYLQMNSLKPEDTAVYYCAADYSVASPDGPDVIYDYWGQGTQVTVSS", "polyreactivity (PSR sort gate)": "low polyreactivity"}
{"sequence": "QVQLEESGGGLVQAGGSLRLSCAATGFIFRGYAMGWYRPAPGKERELVAAITSSGGDTYYADSVKGRFTISRDNAKNTVYLQMNSLKPEDTAVYYCNARDYASGTEGDYWGQGTQVTVSS", "polyreactivity (PSR sort gate)": "low polyreactivity"}
{"sequence": "QVQLEESGGGLVQAGGSLRLSCAATGSTFGYAMGWYSQATGKEGEWVAALTSTGGSTYYADSLKGRFTISRDKAKNTVDLQMNSLKPYDTAVYYCAADAYWIRSRFLYRIRYNYWGQGTQVTVSS", "polyreactivity (PSR sort gate)": "high polyreactivity"}
{"sequence": "QVQLEESGGGLVQAGGSLRLSCAATGSTIPYYAMGWYRQAPGKERELVARITSGDRTFYADSVKGRFTISRDNAKNTVYLQMNSLKPEDTAVYFCNAQVHYYSWYGYWGQGTQVTVSS", "polyreactivity (PSR sort gate)": "high polyreactivity"}
{"sequence": "QVQLEESGGGLVQAGGSLRLSCAAYGFTIVGNTMGWYRQAPGKERELVASINTNGGSTYYADSVKGRFTISRDNAKNTVYLQMNSLKPEDTAVYYCNARSWYPYDYWGQGTQVTVSS", "polyreactivity (PSR sort gate)": "low polyreactivity"}
{"sequence": "QVQLEESGGGLVQAGGSLRLSCAAYGSTFSYAMGWYRQAPGKERELVAAITIGGRTSYADSVKGRFTISRDNAKNTVYLQMSSLKPEDTAVYYCAADDLPGMDYWGQGTQVTVSS", "polyreactivity (PSR sort gate)": "low polyreactivity"}
{"sequence": "QVQLEESGGGLVQAGGSLRLSSAASGRIFRAYAMGRYRQAPGKERELVAAITSGGGSTYYADSVKGRFTISRHNAKNTVYLQMNSLKPEDTAVYYSAAKSSRIAYSSWFYYATFDYWGQGTQVTVSS", "polyreactivity (PSR sort gate)": "high polyreactivity"}
{"sequence": "QVQLEESGGGLVQAGGSLRLSWAASGSTFQSYAMGWYRQAPGKERELVAVIDSGGRTYYADSVKGRFTISRDNAKNTVYLQMNSLKPEDTAVYYCATVPGYSLYDLIVYWGQGTQVTVSS", "polyreactivity (PSR sort gate)": "high polyreactivity"}
{"sequence": "QVQLEESGGGLVQSGGSLRLSCAASGSIFYGYTMGWYRQAPGKEMEFVAAITGSGGSTYFADSVKGRFTISRDNAKKTVYLQMNSLKPEDTSVYYCAARRYVNRRYDYWGQGTQVTVSS", "polyreactivity (PSR sort gate)": "high polyreactivity"}
{"sequence": "QVQLEESGGRLVQAGGSLRLSCAASGSTFITNAMGWYRQAPGKERELVAAITYSTGGTYYADSVKGRFTISRDNAKNTVYLQMNSLKPEDTAVYYCAALLYFFLYDYWGHGTQVTVSS", "polyreactivity (PSR sort gate)": "low polyreactivity"}
{"sequence": "QVQLEESGGSLVQAGGSLRLSCAASGRTFTVNDMGWYRQAPGKERELVADIRGSGVSTSYADSVKGRFTISRDNAKNTVYLQMNSLKPADTAVYYCATDPVKSGYQRYYYWGQGTHVTVSS", "polyreactivity (PSR sort gate)": "low polyreactivity"}
{"sequence": "QVQLEESGRGLVQAGGSLRLSCAASGFTFRIYAMGWYRQAPGKGREFVAAITWSSGSTYYADSVKGRFTISRDNAKITVYLQMNSLKPEDTAVYYCAATYRFFPPRYYYWGQGTQVTVSS", "polyreactivity (PSR sort gate)": "high polyreactivity"}
{"sequence": "QVQLEESGRGLVQAGGSLRLSCAASGRTFAYYAMGWYRQAPGKERELVAAITSGGSTNYADSVKGRFTISRDNAKNTVYLQMNSLKPEDTAVYYCNARFRWPWSTYDYWGQGTQVTVSS", "polyreactivity (PSR sort gate)": "high polyreactivity"}
{"sequence": "QVQLEESGRGLVQAGGSLRLSCAASGSTFWSYAMGWYRQAPGKERELVATITRAGTTNYADSVKGRFTISRDNAKNTVYLQMNSLKPVDTAVFYCATRRPIYVRAYDYWGQGTQVTVSS", "polyreactivity (PSR sort gate)": "high polyreactivity"}
{"sequence": "QVQLEESGRGLVQAGGSLRLSCAASGSTSGIYAMGWYRQAPGKERELVAAITWSGGSTNYADSVKGRFTISRDNAKNTVYLQMNSLKPVDTAVYYCAAEFYSYKYPDFDYWGQGTQVTVSS", "polyreactivity (PSR sort gate)": "low polyreactivity"}
{"sequence": "QVQLEESGRGLVQAGGSLRLSCASSGIIFDGNAMGWYRQAAGKERELVAAITGGGSTDNADSVKGRFTISRDNGKYTVYLQMNSLKPEDTAVYYCAAVRSYYPGYYLGQGTQVTVSS", "polyreactivity (PSR sort gate)": "high polyreactivity"}
{"sequence": "QVQLEESRGCLVQAGGSLRLSCAASGSIFYVYAMGWYRQAPGKERELVAAINTSGGSTYADSVMGRFTISRDNAKNTVYLQMNILIPEDNAFYYCAADGYYEYTWGEYDSWGQGTQVTVSS", "polyreactivity (PSR sort gate)": "low polyreactivity"}
{"sequence": "QVQLEESRGGLVQAGGSLRLSCAASGFIIKHYAMGWYRQAPRKERELVAAISKRGGSTYYADSVKGRFTISRDNAKNTVYLQMNSLKPEDTAVYYCNAYLYVWHYPSGDEYDYWGQGTQVTVSS", "polyreactivity (PSR sort gate)": "high polyreactivity"}
{"sequence": "QVQLEESRGGVVQAGGSLRLSCAASGSIITVYALGWERQAPGQERELVAGISRGGGTYYADSVTGRFTISRDNAKNCVYLQMNSLKPEDTAVYYCAAQIELWPYGIYQSGMYYWGQGTQVTVSS", "polyreactivity (PSR sort gate)": "low polyreactivity"}
{"sequence": "QVQLEESVGGLVQAGGSLRLSCAASGSIFSPNAMGSYRQAPGKERELVAAISSNGDSTYYADSVKGRFTISRDNAMNTVYLQMNSLKPEDTAVYYCAAVSIGPGEYDYWGQGTQVTVSS", "polyreactivity (PSR sort gate)": "low polyreactivity"}
{"sequence": "QVQLEETGGGLVQAGGSLRLSCAASGIILGKNAMGWYRQAPGKERELVASITSGAGITYYADSVKGRFTISRDNAKNTVYLQMNSLKPEDTAVYYCAADWSGDFFTDGYWGQGTQVTVSS", "polyreactivity (PSR sort gate)": "low polyreactivity"}
{"sequence": "QVQLEETVGGLVQAGGSLRLSSAATGLTFYLYVMGWYSQAHGKERELVAAISRRGGTTYYADSVKGRVTISRDKAKNTVYLQLNCLKPDDTAVYDCAADFFARTQRTFDYWGLGTQVTVSS", "polyreactivity (PSR sort gate)": "high polyreactivity"}
{"sequence": "QVQLGESCGGLVQAGGSLRLSCAASGPIFRSYAMGWYRQAPGKERELVARITSGGSTNYADSVKGRFTISRDNAKNTVYLQMNSLKPEDSAVYYCARDWGKSEYDYWGQGTQVTVSS", "polyreactivity (PSR sort gate)": "high polyreactivity"}
{"sequence": "QVQLGESGGALVQAGGSLRLSCAASGFTFCPYAMGWYRQAPGKERELDAAISQSGGRTSYADSVKGRFTISRDNAKNTVYLQMNSLKPEDTAVYYCAKRAYGYRSIYRMDYWGQGTLVTVSS", "polyreactivity (PSR sort gate)": "high polyreactivity"}
{"sequence": "QVQLGESGGGLDQAGGSLRLSCAASGRTFTNNAMGWYRQAPGKERELVAAITSGGRTNYADSVKGRFTISRDNAKNTVYLQMNSLKPEDTAVYYFAARIPSDGYYYWGQGTQVTVSS", "polyreactivity (PSR sort gate)": "high polyreactivity"}
{"sequence": "QVQLGESGGGLVQAGCSLRLSCAASGSIFIAYDMGWYRQAPGKERELVAAISIIDGSTYYADSVKRRFTISRDNAKNTVYLQMNSLKPEDTAVYYCSTRVFYLYDYWGQGTQVTVSS", "polyreactivity (PSR sort gate)": "low polyreactivity"}
{"sequence": "QVQLGESGGGLVQAGGSLRLRCAASGYIITYNAMGWYRQAPGKERELVAAISSGGSTNYADSVKGRFTISRDNAKITVYLQMNSLKPEDTAVFYCAAPVWTYDDYWGQGSQVTVSS", "polyreactivity (PSR sort gate)": "low polyreactivity"}
{"sequence": "QVQLGESGGGLVQAGGSLRLSCAASGFIFFYYAMGRYRQAPGKERELVAVNTRGGSTYYADSVKGRFTISRDNAKNTVYLQMNSLKPVDTAVYYCAAGIFYYRYYQVDYWGQGTQVTVSS", "polyreactivity (PSR sort gate)": "high polyreactivity"}
{"sequence": "QVQLGESGGGLVQAGGSLRLSCAASGFIFPIYAMGWYIKSPVTERELVAVISGSGGSTYYADSVKGRFTISRDNAKNTVYLLMNSLKPEDTAVYYCAALGRNVAVYKGGYWGQGNQVTVSS", "polyreactivity (PSR sort gate)": "low polyreactivity"}
{"sequence": "QVQLGESGGGLVQAGGSLRLSCAASGGIFDIYAMGWYRQAPGKERELVAAIRGSGGRTYYADSVKGRFTISRDNAKNSLYLQMNSLKPEDTAVYYCAARPSIVTGLRYGYWGQGTQVTVSS", "polyreactivity (PSR sort gate)": "high polyreactivity"}
{"sequence": "QVQLGESGGGLVQAGGSLRLSCAASGGTFYYYAMGWYRHAPGKERELVATISYSGASTYYADSVKGRFTISRDNAKNTVYLQRNSLKPEDTAVYYCNARPYNHRYRAWMDYWGQGTQVTVSS", "polyreactivity (PSR sort gate)": "high polyreactivity"}
{"sequence": "QVQLGESGGGLVQAGGSLRLSCAASGITFPGYAMGWYRQAPGKERELVARISRSGGSTYYADSVKGRFTISRDNAKNTVYFQMNSLKPEDTAVYYCAAGAYRSGGYSFDDWGQGTQVTVSS", "polyreactivity (PSR sort gate)": "low polyreactivity"}
